Assay results published in PMC8930771, “Structural basis of phosphatidylinositol 3-kinase C2α function” (Nature Structural & Molecular Biology, 2022).

Key:
[1] = biological target: T1, PI3KC2α^ΔN+ΔPX−C2 RBD mutant (K426A, W458A, D461A, D462A) (mouse, UniProt Q61194 377-1400, K426A | W458A | D461A | D462A); assay: pull-down; 10 μg immobilized GST fusion protein as bait, 200 μg PI3KC2α^ΔN+ΔPX−C2 WT or RBD mutant in 500 μl binding buffer (20 mM Tris, pH 7.5, 100 mM NaCl), 1 h at 4 °C, three washes; SDS-PAGE and Coomassie blue staining, quantified with ImageJ; settings: both partners purified
T1 construct: Phosphatidylinositol 3-kinase type 2α (PI3KC2α), mouse, amino acids 377-1,400, with four alanine substitutions in the RBD; source: Sf21 insect cells (baculovirus), purified (Nickel NTA, TEV cleavage, Superdex 200)
T1 sequence (looked up): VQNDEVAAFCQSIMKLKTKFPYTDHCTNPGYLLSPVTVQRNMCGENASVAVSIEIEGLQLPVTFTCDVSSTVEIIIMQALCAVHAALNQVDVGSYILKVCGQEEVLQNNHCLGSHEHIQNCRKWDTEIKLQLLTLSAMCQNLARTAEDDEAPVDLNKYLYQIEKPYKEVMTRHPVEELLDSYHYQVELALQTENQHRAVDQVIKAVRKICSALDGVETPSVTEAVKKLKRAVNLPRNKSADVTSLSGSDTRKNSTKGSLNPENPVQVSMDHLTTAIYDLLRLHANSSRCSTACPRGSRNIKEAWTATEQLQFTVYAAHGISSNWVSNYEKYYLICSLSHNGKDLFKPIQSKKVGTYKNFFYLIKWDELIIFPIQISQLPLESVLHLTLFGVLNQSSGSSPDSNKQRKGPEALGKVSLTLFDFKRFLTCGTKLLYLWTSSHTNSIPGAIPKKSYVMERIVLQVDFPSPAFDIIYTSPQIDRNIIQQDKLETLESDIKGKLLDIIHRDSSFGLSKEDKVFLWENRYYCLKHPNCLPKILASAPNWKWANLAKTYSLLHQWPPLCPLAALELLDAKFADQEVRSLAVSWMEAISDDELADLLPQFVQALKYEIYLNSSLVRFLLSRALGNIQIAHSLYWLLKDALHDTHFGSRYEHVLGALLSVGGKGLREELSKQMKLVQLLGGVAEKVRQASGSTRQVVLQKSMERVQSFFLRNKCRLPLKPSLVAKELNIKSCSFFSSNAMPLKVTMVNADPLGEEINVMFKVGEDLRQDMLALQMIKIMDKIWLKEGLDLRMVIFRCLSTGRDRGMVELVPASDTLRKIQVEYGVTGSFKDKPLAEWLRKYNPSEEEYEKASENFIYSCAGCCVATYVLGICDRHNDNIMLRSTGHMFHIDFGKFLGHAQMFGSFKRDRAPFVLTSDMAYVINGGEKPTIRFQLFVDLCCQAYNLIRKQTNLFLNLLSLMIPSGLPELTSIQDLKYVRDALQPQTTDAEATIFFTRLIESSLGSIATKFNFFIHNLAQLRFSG

[2] = biological target: T2, PI3KC2α^ΔN+ΔPX−C2 WT (mouse PI3KC2α amino acids 377–1,400) (mouse, UniProt Q61194 377-1400); assay: as above; settings: both partners purified
T2 construct: Phosphatidylinositol 3-kinase type 2α (PI3KC2α), mouse, amino acids 377-1,400; lacks the disordered N-terminal region and the distal PX and C-C2 domains; Cloned into pFL10His; The purification paragraph names PI3KC2α^ΔN, ^ΔN+ΔC−C2, ^core 'and related mutants'; also called PI3KC2α^ΔN+ΔPX−C2 Wild-type (WT); source: Sf21 insect cells (baculovirus), purified (Nickel NTA, TEV cleavage, Superdex 200)
T2 sequence (looked up): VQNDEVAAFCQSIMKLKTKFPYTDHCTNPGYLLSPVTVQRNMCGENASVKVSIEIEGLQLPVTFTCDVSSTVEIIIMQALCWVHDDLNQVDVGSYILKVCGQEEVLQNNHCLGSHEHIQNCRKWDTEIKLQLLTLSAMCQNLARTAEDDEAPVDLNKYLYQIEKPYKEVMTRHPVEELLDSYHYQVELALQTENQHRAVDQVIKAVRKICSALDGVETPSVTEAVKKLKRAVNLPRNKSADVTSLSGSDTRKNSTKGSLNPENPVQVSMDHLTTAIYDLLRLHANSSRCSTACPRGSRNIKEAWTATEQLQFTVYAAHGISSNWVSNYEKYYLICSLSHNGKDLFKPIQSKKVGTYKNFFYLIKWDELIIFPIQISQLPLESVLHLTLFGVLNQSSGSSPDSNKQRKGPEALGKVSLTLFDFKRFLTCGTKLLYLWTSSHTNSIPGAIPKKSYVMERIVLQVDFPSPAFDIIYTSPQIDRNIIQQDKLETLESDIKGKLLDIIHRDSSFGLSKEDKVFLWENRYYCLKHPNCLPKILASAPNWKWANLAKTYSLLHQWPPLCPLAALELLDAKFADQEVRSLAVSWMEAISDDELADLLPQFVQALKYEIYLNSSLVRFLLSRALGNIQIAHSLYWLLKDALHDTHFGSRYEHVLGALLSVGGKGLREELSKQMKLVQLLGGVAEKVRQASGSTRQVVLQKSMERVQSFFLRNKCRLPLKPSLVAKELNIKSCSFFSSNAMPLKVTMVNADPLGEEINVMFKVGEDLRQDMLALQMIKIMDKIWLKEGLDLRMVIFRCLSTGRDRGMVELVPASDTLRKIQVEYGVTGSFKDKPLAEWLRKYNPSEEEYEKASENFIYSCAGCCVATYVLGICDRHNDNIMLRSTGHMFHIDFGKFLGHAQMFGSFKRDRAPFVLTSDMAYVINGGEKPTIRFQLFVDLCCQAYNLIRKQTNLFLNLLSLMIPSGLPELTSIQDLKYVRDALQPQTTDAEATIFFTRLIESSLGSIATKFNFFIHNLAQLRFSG

B1: GST-distal C2 (PI3KC2α amino acids 1,561–1,686) (domain or fragment, mouse, UniProt Q61194 1561-1686, looked up)
chain: GAVKLSVSYRNGTLFIMVMHIKDLVTEDGADPNPYVKTYLLPDTHKTSKRKTKISRKTRNPTFNEMLVYSGYSKETLRQRELQLSVLSAESLRENFFLGGITLPLKDFNLSKETVKWYQLTAATYL
notes: PI3KC2α, mouse, C-terminal (distal) C2 domain, amino acids 1,561-1,686; also called GST-C2; GST-tagged C2; source: E. coli (pGEX-4T-1), immobilized GST fusion protein
[1]
  binding result: binds
[2]
  binding result: binds
